Test results as given in paper doi:10.1101/2020.09.17.302869.
Where two headings read alike, the source gives them in different places. Blank lines part the entries; values can stand above or below the binder they belong to.

Legend:
Test in all cases: MST
[1] = target: sarco/endoplasmic reticulum Ca2+-ATPase (SERCA), native rabbit, detergent solubilized (rabbit) (UniProt P04191)
[2] = target: sarco/endoplasmic reticulum Ca2+-ATPase (SERCA), native rabbit, detergent solubilized (rabbit) (UniProt P04191); remark: listed apart in the source
[3] = target: sarco/endoplasmic reticulum Ca2+-ATPase (SERCA), native rabbit, detergent solubilized (rabbit) (UniProt P04191); remark: listed apart in the source

Sequence of UniProt P04191 (P04191 whole entry): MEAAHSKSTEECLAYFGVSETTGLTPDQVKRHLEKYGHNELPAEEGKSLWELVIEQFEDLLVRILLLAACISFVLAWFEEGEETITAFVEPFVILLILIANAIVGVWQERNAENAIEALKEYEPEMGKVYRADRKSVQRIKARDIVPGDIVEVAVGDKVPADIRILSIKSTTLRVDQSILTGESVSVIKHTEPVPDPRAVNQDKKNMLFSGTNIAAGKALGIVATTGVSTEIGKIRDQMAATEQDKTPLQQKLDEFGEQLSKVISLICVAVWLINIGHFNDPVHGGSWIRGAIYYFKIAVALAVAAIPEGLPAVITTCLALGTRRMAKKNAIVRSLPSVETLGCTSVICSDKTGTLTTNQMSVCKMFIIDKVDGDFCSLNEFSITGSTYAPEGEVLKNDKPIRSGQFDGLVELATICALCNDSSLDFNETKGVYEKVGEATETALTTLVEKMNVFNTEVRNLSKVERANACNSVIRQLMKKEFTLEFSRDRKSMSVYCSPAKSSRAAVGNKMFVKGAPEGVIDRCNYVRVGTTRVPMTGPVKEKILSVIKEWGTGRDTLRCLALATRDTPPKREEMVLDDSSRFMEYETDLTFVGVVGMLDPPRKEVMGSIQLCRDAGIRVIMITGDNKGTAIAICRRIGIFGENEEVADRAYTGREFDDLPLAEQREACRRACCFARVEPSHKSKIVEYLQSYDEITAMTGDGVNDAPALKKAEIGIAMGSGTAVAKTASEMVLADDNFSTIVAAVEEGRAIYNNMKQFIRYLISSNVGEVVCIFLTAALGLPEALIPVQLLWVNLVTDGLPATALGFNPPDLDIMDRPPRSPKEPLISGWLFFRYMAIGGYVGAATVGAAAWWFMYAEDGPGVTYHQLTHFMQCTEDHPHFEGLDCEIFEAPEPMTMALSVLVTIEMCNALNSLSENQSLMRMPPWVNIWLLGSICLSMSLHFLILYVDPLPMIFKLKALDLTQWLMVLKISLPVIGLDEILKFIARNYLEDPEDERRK

fold reduction of affinity by C-terminal truncation [1]: > 1000 fold
B1: rabbit HRC (458-520) (domain or fragment)
chain: GEEEDEDDDDEGEHHHVPHRGHRGHEEDDGGDDDDGDDSTENGHQAHRHQGHGKEEAEVTSDE

fold loss of affinity on removal of residues 640-666 [1]: 10 fold
B2: rabbit HRC (458-640) (domain or fragment)
chain: GEEEDEDDDDEGEHHHVPHRGHRGHEEDDGGDDDDGDDSTENGHQAHRHQGHGKEEAEVTSDEHHHHVPDHGHQGHGDKEGEEEGVSTDHWHQVPRHAHHGPGGEEEGGEEELTVKAGHHVASHPPPGHRSREGHAEEHQTEVPGHHQHRMGDTDTSAERGHPASSPRQQGHPPEDTVHHHRG

Kd [2]: 500 to 1000 nM | Kd [3]: 5600 nM | Kd [1]: 140 nM | fold decrease in affinity with increased KCl concentration [1]: > 100 fold | fold decrease in affinity, 200 mM against 50 mM KCl [1]: > 300 fold
B3: rabbit HRC (496-656) (domain or fragment)
chain: STENGHQAHRHQGHGKEEAEVTSDEHHHHVPDHGHQGHGDKEGEEEGVSTDHWHQVPRHAHHGPGGEEEGGEEELTVKAGHHVASHPPPGHRSREGHAEEHQTEVPGHHQHRMGDTDTSAERGHPASSPRQQGHPPEDTVHHHRGSLKEEVGPESPGPAGV
